Biological target: DS_ConC_SOSIP trimer (ConC_SOSIP with the disulfide 201C-433C) (HIV-1 (clade C consensus))
Assay: negative-stain electron microscopy

Substance: DS_ConC_SOSIP trimer (ConC_SOSIP with the disulfide 201C-433C) (complex)
- stoichiometry N: 3

Reference: article PMC6010203
